Reference: patent publication US20210380702A1 (Regeneron, published 2021)

Legend:
[1] = target: T1, recombinant human PD-L1 expressed with a C-terminal myc-myc-hexahistidine tag (hPD-L1-MMH) (human); assay: SPR, captured mAb, 25 C
T1 construct: Monomeric PD-L1 reagent; also called hPD-L1-MMH Monomer
Procedure: (§1) Binding association and dissociation rate constants (kₐ and kd, respectively), equilibrium dissociation constants and dissociation half-lives (KD and t_{1/2}, respectively) of antigen binding to purified anti-PD-L1 monoclonal antibodies were determined using a real-time surface plasmon resonance biosensor assay on a Biacore 4000 instrument. The Biacore sensor surface was either derivatized with polyclonal rabbit anti-mouse antibody (GE, #BR-1008-38) or with monoclonal mouse anti-human Fc antibody (GE, #BR-1008-39) to capture approximately 200-300 RUs of anti-PD-L1 monoclonal antibodies, expressed with either a mouse Fc or with human Fc, respectively. […] Different concentrations of PD-L1 reagents were injected over the anti-PD-L1 monoclonal antibody captured surface at a flow rate of 30 μL/min. The binding of the PD-L1 reagents to the captured monoclonal antibodies was monitored for 3 to 4 minutes while the dissociation of antibody bound PD-L1 reagents was monitored for 10 minutes in HBST running buffer (0.01 M HEPES pH 7.4, 0.15 M NaCl, 3 mM EDTA, 0.05% v/v Surfactant tween-20). Experiments were performed at either 25° C. or 37° C. Kinetic association (kₐ) and dissociation (kd) rate constants were determined by processing and fitting the data to a 1:1 binding model using Scrubber 2.0c curve fitting software. Binding dissociation equilibrium constants (KD) and dissociative half-lives (t_{1/2}) were then calculated from the kinetic rate constants as: KD (M)=kd/kₐ and t_{1/2} (min)=[In2/(60*kd)].

Human PD-L1 Dimer [2] = target: T2, Human PD-L1 Dimer (human, UniProt Q9NZQ7 19-239); assay: SPR (Biacore), mAb captured, 37C
T2 construct: also called hPD-L1 dimer; hPD-L1-hFc
T2 sequence (Q9NZQ7 19-239): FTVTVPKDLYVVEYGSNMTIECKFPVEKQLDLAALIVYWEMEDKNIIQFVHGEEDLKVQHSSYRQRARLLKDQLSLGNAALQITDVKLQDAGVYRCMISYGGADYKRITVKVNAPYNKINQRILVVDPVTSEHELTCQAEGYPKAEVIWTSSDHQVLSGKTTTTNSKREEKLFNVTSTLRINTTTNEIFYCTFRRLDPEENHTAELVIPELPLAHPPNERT
Procedure: as §1

[3] = target: T3, recombinant cynomolgus monkey PD-L1 with a C-terminal myc-myc-hexahistidine tag (cynomolgus monkey (Macaca fascicularis)); assay: SPR (Biacore), mAb captured, 37C
T3 construct: also called MfPD-L1-MMH; MfPD-L1-MMH Monomer
T3 sequence (chain, as listed by the source limits assumed): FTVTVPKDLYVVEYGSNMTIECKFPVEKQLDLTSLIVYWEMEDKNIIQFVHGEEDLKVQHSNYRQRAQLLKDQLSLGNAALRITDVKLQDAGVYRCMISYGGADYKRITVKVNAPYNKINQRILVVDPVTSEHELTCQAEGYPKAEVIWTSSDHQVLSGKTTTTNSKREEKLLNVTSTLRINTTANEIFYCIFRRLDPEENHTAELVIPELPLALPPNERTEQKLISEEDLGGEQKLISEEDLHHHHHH
Procedure: as §1

[4] = target: T4, recombinant human PD-L1 (amino acids 19-239 of NP_054862.1) with a C-terminal myc-myc-hexahistidine tag (human); assay: SPR (Biacore), mAb captured, 37C
T4 construct: also called hPD-L1-MMH; hPD-L1-MMH Monomer
T4 sequence (chain, as listed by the source limits assumed): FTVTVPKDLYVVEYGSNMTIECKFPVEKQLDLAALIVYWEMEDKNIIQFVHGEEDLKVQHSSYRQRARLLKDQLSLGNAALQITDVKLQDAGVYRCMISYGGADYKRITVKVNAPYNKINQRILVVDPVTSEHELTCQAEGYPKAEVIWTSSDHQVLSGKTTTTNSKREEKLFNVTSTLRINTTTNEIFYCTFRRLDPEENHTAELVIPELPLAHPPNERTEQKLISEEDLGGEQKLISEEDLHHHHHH
Procedure: as §1

Human PD-L1 Dimer [5] = target: T2, Human PD-L1 Dimer; assay: SPR (Biacore), mAb captured, 25C
Procedure: as §1

[6] = target: T3, recombinant cynomolgus monkey PD-L1 …; assay: SPR (Biacore), mAb captured, 25C
Procedure: as §1

Kd [1]	koff [1]	kon [1]	t1/2 [1]	other results	Binder
9.51 nM	0.000722 s⁻¹	75900 M⁻¹ s⁻¹	16 min	–	H2aM8312N (antibody, mouse IgG2, V domains shown, also called H2M8312N) VH: QVHLVQSGAEVKKPGASVKVSCKASGYTFTGYYIHWVRQAPGHGLEWMGWLNPNTGTTKYIQNFQGRVTMTRDTSSSTAYMELTRLRSDDTAVYYCARDEDWNYGSWFDTWGQGTLVTVSS VL: not shown
165 nM	0.0149 s⁻¹	90200 M⁻¹ s⁻¹	0.8 min	–	H1H9345P2 (antibody, human IgG1, V domains shown) VH: EVQLVESGGGLVQPGGSLRLSCAASGFTISTNYMNWVRQAPGKGLEWVAVIYSSGSTYYIDSVKGRFTISRLTSKNTVYLQMSSLNSEDTAVYYCARGIRGFDIWGQGTMVTVSS VL: not shown
0.238 nM	0.000223 s⁻¹	937000 M⁻¹ s⁻¹	52 min	–	H2aM8323N (antibody, mouse IgG2, V domains shown, also called H2M8323N) VH: QVQLVQSGAEVKMPGSSVRVSCKASGGIFSSSTISWVRQAPGQGLEWMGEIIPVFGTVNYAQKFQDRVIFTADESTTTAYMELSSLKSGDTAVYFCARNWGLGSFYIWGQGTMVTVSS VL: EIVLTQSPGTLSLSPGERATLSCRASQSFNFNYLAWYQQKPGQAPRLLIYGASSRATGIPDRFSGSGSGTDFTLTINRLEPEDFGVFYCQQYESAPWTFGQGTKVEIK
12.7 nM	0.00218 s⁻¹	172000 M⁻¹ s⁻¹	5.3 min	–	H1H9396P2 (antibody, human IgG1, V domains shown) VH: QVQLVQSGAEVEKPGASVKVSCKASGYIFTHYGISWVRQAPGQGLEWVGWISPYNGYTDYAQKLQGRVTLTTDTSTTTAYMELRNLRSDDTAMYYCSRGRGPYWSFDLWGRGTLVTVSS VL: not shown
69.6 nM	0.01 s⁻¹	144000 M⁻¹ s⁻¹	1.2 min	–	H2aM8306N (antibody, mouse IgG2, V domains shown, also called H2M8306N) VH: EVQLVESGGGLVQPGGSLRLSCAASGFTFSRFWMSWVRQAPGKGLEWVANINQDGTEKYYVDSVKGRFTISRDNAKNSLYLQMNSLRAGDTAVYYCANTYYDFWSGHFDYWGQGTLVTVSS VL: not shown [H2aM8306N, listing 1 of 2 here]
–	–	–	–	Kd (Human PD-L1 Dimer [2]): 0.417 nM; koff (Human PD-L1 Dimer [2]): 0.000416 s⁻¹; kon (Human PD-L1 Dimer [2]): 997000 M⁻¹ s⁻¹; t1/2 (Human PD-L1 Dimer [2]): 28 min; Kd [3]: 134 nM; koff [3]: 0.0368 s⁻¹; kon [3]: 274000 M⁻¹ s⁻¹; t1/2 [3]: 0.3 min; Kd [4]: 172 nM; koff [4]: 0.031 s⁻¹; kon [4]: 180000 M⁻¹ s⁻¹; t1/2 [4]: 0.4 min; Kd (Human PD-L1 Dimer [5]): 0.418 nM; koff (Human PD-L1 Dimer [5]): 0.000309 s⁻¹; kon (Human PD-L1 Dimer [5]): 739000 M⁻¹ s⁻¹; t1/2 (Human PD-L1 Dimer [5]): 37 min; Kd [6]: 47.7 nM; koff [6]: 0.00788 s⁻¹; kon [6]: 165000 M⁻¹ s⁻¹; t1/2 [6]: 1.5 min	H2aM8306N (antibody, mouse IgG2, V domains shown, also called H2M8306N) VH: EVQLVESGGGLVQPGGSLRLSCAASGFTFSRFWMSWVRQAPGKGLEWVANINQDGTEKYYVDSVKGRFTISRDNAKNSLYLQMNSLRAGDTAVYYCANTYYDFWSGHFDYWGQGTLVTVSS VL: not shown [H2aM8306N, listing 2 of 2 here]
3.5 nM	0.00031 s⁻¹	88600 M⁻¹ s⁻¹	37 min	–	H2aM8310N (antibody, mouse IgG2, V domains shown, also called H2M8310N) VH: QVQLVQSGAEVKKPGASVQVSCKASGYSFTGYYIHWVRQAPGQGLEWMGWINPNSGTKKYAHKFQGRVTMTRDTSIDTAYMILSSLISDDTAVYYCARDEDWNFGSWFDSWGQGTLVTVSS VL: DIVMTQTPLSSPVTLGQPASISCRSSQTLVHGDGNTYLSWIQQRPGQPPRLLIYKVSNQFSGVPDRFSGSGAGTDFTLKISRVEAEDVGLYFCMQATHFPITFGQGTRLEIK
16.3 nM	0.0104 s⁻¹	642000 M⁻¹ s⁻¹	1.1 min	–	H2aM8309N (antibody, mouse IgG2, V domains shown, also called H2M8309N) VH: not shown VL: DIQMTQSPSSLSASVGDRVTITCRTSQGIRNDLGWYQQKPGKAPKRLIYAASSLQSGVPSRFSGSGSGTEFTLTISSLQPEDFATYYCLQHNNYPYTFGQGTKLEIK
75.8 nM	0.134 s⁻¹	1.77e+06 M⁻¹ s⁻¹	0.1 min	–	H1H9329P (antibody, human IgG1, V domains shown) VH: EVQLVESGGGLVQSGGSLRLSCAASGFTFSSYWMSWVRQAPGKGLEWVANIKQDGSEKYYVDSVKGRFTISRDNAKNSLYLQMNSLRADDTAVYYCARDDIVVVPAPMGYYYYYFGMDVWGQGTTVTVSS VL: DIQMTQSPSSLSASVGDRVTITCRASQGIRNDLGWYQQKPGKAPKRLIYAASSLQSGVPSRFSGSGSGTEFTLTISSLQPEDFATYYCLQHNSYPYTFGQGTKLEIK
